From article PMC3388945

Molecular target: GST-TFIIB fusion protein (UniProt Q00403)
Experiment: pull-down

Sequence of UniProt Q00403 (Q00403 whole entry, the tested form may be a part): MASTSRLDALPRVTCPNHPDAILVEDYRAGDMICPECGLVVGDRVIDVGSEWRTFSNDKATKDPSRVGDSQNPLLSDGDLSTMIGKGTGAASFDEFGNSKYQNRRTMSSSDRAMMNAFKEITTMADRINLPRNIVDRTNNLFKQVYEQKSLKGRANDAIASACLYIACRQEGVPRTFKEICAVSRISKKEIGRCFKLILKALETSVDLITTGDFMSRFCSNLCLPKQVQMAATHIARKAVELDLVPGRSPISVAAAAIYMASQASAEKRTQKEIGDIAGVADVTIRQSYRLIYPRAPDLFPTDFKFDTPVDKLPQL

Row | Substance | percent of input precipitated
1 | 35S-IR2P(78-397)-NH (domain or fragment) | 12 % of input
2 | 35S-IR2P(78-438)-NH (domain or fragment) | 13 % of input
